Measurements as given in the Immune Epitope Database (IEDB).
Each block holds one sequence with its values, some of them ahead of it.

Columns and labels:
HLA-C*12:03 = test: IEDB peptide-MHC binding, purified MHC/direct/fluorescence; filed as Kd, often an IC50 or EC50 that approximates it; ≥ and ≤ were set here for values at or beyond the usual limits of such assays; conditions: source organism: Homo sapiens
HLA-B*07:02 = test: IEDB peptide-MHC binding, purified MHC/competitive/fluorescence; ≥ and ≤ were set here for values at or beyond the usual limits of such assays
HLA-A*02:01 [1] = test: as above
HLA-A*26:01 [2] = test: IEDB peptide-MHC binding, purified MHC/competitive/fluorescence; filed as Kd, often an IC50 or EC50 that approximates it; ≥ and ≤ were set here for values at or beyond the usual limits of such assays
HLA-A*02:01 [3] = test: as above
HLA-B*15:01 [4] = test: as above
HLA-C*03:03 = test: IEDB peptide-MHC binding, purified MHC/direct/fluorescence; filed as Kd, often an IC50 or EC50 that approximates it; ≥ and ≤ were set here for values at or beyond the usual limits of such assays
HLA-A*24:03 = test: IEDB peptide-MHC binding, purified MHC/competitive/fluorescence; filed as Kd, often an IC50 or EC50 that approximates it; ≥ and ≤ were set here for values at or beyond the usual limits of such assays
HLA-B*27:03 = test: as above
HLA-B*51:01 = test: as above
HLA-B*18:01 = test: as above
HLA-B*57:01 [5] = test: as above
HLA-B*39:01 = test: as above
HLA-B*46:01 = test: as above
HLA-A*02:19 [6] = test: IEDB peptide-MHC binding, purified MHC/direct/fluorescence; filed as Kd, often an IC50 or EC50 that approximates it; ≥ and ≤ were set here for values at or beyond the usual limits of such assays; conditions: source organism: Orthohantavirus andesense
HLA-A*02:03 = test: as above; conditions: source organism: Orthohantavirus andesense
HLA-A*03:01 [7] = test: as above
HLA-A*02:12 [8] = test: as above; conditions: source organism: Orthohantavirus andesense
HLA-A*24:02 = test: IEDB peptide-MHC binding, purified MHC/competitive/fluorescence; ≥ and ≤ were set here for values at or beyond the usual limits of such assays
HLA-B*15:01 [9] = test: as above
HLA-A*02:01 [10] = test: IEDB peptide-MHC binding, purified MHC/direct/fluorescence; filed as Kd, often an IC50 or EC50 that approximates it; ≥ and ≤ were set here for values at or beyond the usual limits of such assays; conditions: source organism: Reston ebolavirus
HLA-C*05:01 = test: as above
HLA-B*58:01 = test: as above; conditions: source organism: Shigella flexneri
HLA-A*26:01 [11] = test: as above; conditions: source organism: Escherichia coli O157:H7
HLA-B*44:02 = test: as above; conditions: source organism: Escherichia coli O157:H7
HLA-B*08:01 = test: as above; conditions: source organism: Escherichia coli O157:H7
HLA-B*57:01 [12] = test: as above; conditions: source organism: Escherichia coli O157:H7
HLA-A*01:01 = test: as above; conditions: source organism: Escherichia coli O157:H7
HLA-A*11:01 [13] = test: as above; conditions: source organism: Escherichia coli O157:H7
HLA-B*27:05 = test: as above; conditions: source organism: Escherichia coli O157:H7
HLA-A*31:01 = test: as above; conditions: source organism: Escherichia coli O157:H7
HLA-B*40:01 = test: as above; conditions: source organism: Escherichia coli O157:H7
HLA-A*69:01 [14] = test: as above; conditions: source organism: Escherichia coli O157:H7
HLA-B*15:17 [15] = test: as above; conditions: source organism: Escherichia coli O157:H7
HLA-B*15:01 [16] = test: as above; conditions: source organism: Shigella flexneri
HLA-A*02:19 [17] = test: IEDB peptide-MHC binding, purified MHC/competitive/fluorescence; filed as Kd, often an IC50 or EC50 that approximates it; ≥ and ≤ were set here for values at or beyond the usual limits of such assays; conditions: source organism: Escherichia coli
HLA-A*02:11 = test: as above; conditions: source organism: Escherichia coli
HLA-A*68:02 = test: as above; conditions: source organism: Escherichia coli
HLA-A*69:01 [18] = test: as above; conditions: source organism: Escherichia coli
HLA-B*15:17 [19] = test: as above; conditions: source organism: Escherichia coli
HLA-A*03:01 [20] = test: as above; conditions: source organism: Escherichia coli
HLA-A*02:12 [21] = test: as above; conditions: source organism: Escherichia coli
HLA-B*57:01 [22] = test: IEDB peptide-MHC binding, purified MHC/competitive/radioactivity; filed as Kd, often an IC50 or EC50 that approximates it; ≥ and ≤ were set here for values at or beyond the usual limits of such assays
HLA-A*11:01 [23] = test: IEDB peptide-MHC binding, purified MHC/competitive/fluorescence; ≥ and ≤ were set here for values at or beyond the usual limits of such assays; conditions: source organism: Variola virus
HLA-A*03:01 [24] = test: as above; conditions: source organism: Variola virus
[25] = source organism: Escherichia coli O139:H28 str. E24377A
[26] = source organism: Orthohantavirus andesense
[27] = source organism: Zaire ebolavirus
[28] = source organism: human gammaherpesvirus 4
[29] = source organism: Escherichia coli
[30] = source organism: Sudan ebolavirus

Kd (HLA-C*12:03): ≤ 0.001 µM
Sequence: KAFQDVLYV

Sequence: RVGRVNPGT
IC50 (HLA-B*07:02; source organism: Variola virus): 21.4 µM
IC50 (HLA-A*02:01 [1]; source organism: Variola virus): 11.4 µM

Kd (HLA-A*26:01 [2]; [25]): ≥ 20 µM
Kd (HLA-A*02:01 [3]; [25]): 0.312 µM
Kd (HLA-B*15:01 [4]; [25]): ≥ 20 µM
Kd (HLA-C*03:03; [25]): 2.19 µM
Sequence: YVVWLMFSL

Sequence: RWASGVSEI
Kd (HLA-A*24:03; [26]): 0.0002 µM
Kd (HLA-B*27:03; [26]): ≥ 20 µM
Kd (HLA-A*26:01 [2]; [26]): ≥ 20 µM
Kd (HLA-B*51:01; [26]): ≥ 20 µM
Kd (HLA-B*18:01; [26]): ≥ 20 µM
Kd (HLA-B*57:01 [5]; [26]): ≥ 20 µM
Kd (HLA-B*39:01; [26]): ≥ 20 µM
Kd (HLA-B*46:01; [26]): ≥ 20 µM
Kd (HLA-A*02:19 [6]): ≥ 20 µM
Kd (HLA-A*02:03): ≥ 20 µM
Kd (HLA-A*03:01 [7]; [26]): ≥ 20 µM
Kd (HLA-A*02:12 [8]): ≥ 20 µM

Sequence: FLSFASLFL
IC50 (HLA-A*24:02; [27]): 0.276 µM
IC50 (HLA-A*02:01 [1]; [27]): 0.0489 µM
IC50 (HLA-B*15:01 [9]; [27]): 8.79 µM
Kd (HLA-B*27:03; [27]): ≥ 20 µM
Kd (HLA-A*26:01 [2]; [27]): ≥ 20 µM
Kd (HLA-B*18:01; [27]): ≥ 20 µM
Kd (HLA-B*57:01 [5]; [27]): ≥ 20 µM
Kd (HLA-B*46:01; [27]): ≥ 20 µM
Kd (HLA-A*02:01 [10]): ≤ 0.001 µM
Kd (HLA-A*03:01 [7]; [27]): ≥ 20 µM
Kd (HLA-C*03:03; [27]): 0.005 µM

Sequence: YSQGAFTPL
Kd (HLA-C*05:01; [28]): 3.08 µM
Kd (HLA-C*03:03; [28]): ≤ 0.001 µM

Sequence: ITIPIGLYL
Kd (HLA-B*58:01): 0.0101 µM
Kd (HLA-A*26:01 [11]): ≥ 20 µM
Kd (HLA-B*44:02): ≥ 20 µM
Kd (HLA-B*08:01): ≥ 20 µM
Kd (HLA-B*57:01 [12]): 0.349 µM
Kd (HLA-A*01:01): ≥ 20 µM
Kd (HLA-A*11:01 [13]): ≥ 20 µM
Kd (HLA-B*27:05): ≥ 20 µM
Kd (HLA-A*31:01): ≥ 20 µM
Kd (HLA-B*40:01): ≥ 20 µM
Kd (HLA-A*69:01 [14]): ≥ 20 µM
Kd (HLA-B*15:17 [15]): 0.0018 µM
Kd (HLA-A*03:01 [7]; source organism: Escherichia coli O157:H7): ≥ 20 µM
Kd (HLA-B*15:01 [16]): 2.97 µM
Kd (HLA-C*03:03; source organism: Escherichia coli O157:H7 str. EDL933): 0.094 µM

Kd (HLA-B*27:03; [29]): ≥ 20 µM
Kd (HLA-A*26:01 [2]; [29]): ≥ 20 µM
Kd (HLA-A*02:19 [17]): ≥ 20 µM
Kd (HLA-B*51:01; [29]): ≥ 20 µM
Kd (HLA-B*18:01; [29]): ≥ 20 µM
Kd (HLA-B*57:01 [5]; [29]): ≥ 20 µM
Kd (HLA-A*02:11): 0.0136 µM
Kd (HLA-A*68:02): ≥ 20 µM
Kd (HLA-A*02:01 [3]; [29]): ≥ 20 µM
Kd (HLA-B*39:01; [29]): ≥ 20 µM
Kd (HLA-A*69:01 [18]): ≥ 20 µM
Kd (HLA-B*15:17 [19]): ≥ 20 µM
Kd (HLA-A*03:01 [20]): ≥ 20 µM
Kd (HLA-B*46:01; [29]): ≥ 20 µM
Kd (HLA-B*15:01 [4]; [29]): ≥ 20 µM
Kd (HLA-A*02:12 [21]): ≥ 20 µM
Sequence: MFWKLPPWL

Sequence: ESSPNPTVEA
Kd (HLA-B*57:01 [22]; source organism: Dengue virus 2 Peru/IQT2913/1996): 0.323 µM

Sequence: IPLASLTPK
IC50 (HLA-B*07:02; source organism: Variola virus): 5.73 µM
IC50 (HLA-A*24:02; source organism: Variola virus): 22.1 µM
IC50 (HLA-A*11:01 [23]): 6.66 µM
IC50 (HLA-A*03:01 [24]): 66.6 µM

Sequence: NIKRTLAAM
IC50 (HLA-B*07:02; [27]): ≥ 128 µM
IC50 (HLA-A*02:01 [1]; [27]): ≥ 458 µM

Sequence: KTKLTDWDF
Kd (HLA-B*57:01 [22]; source organism: Dengue virus 4 Philippines/H241/1956): 0.132 µM

Kd (HLA-A*24:03; source organism: Escherichia coli 536): 0.0003 µM
Sequence: QYTRNSFYI

Sequence: YTILNRKAI
IC50 (HLA-B*07:02; [30]): 20.1 µM
IC50 (HLA-A*24:02; [30]): 9.02 µM
IC50 (HLA-A*02:01 [1]; [30]): ≥ 226 µM

Sequence: PTAGILARW
Kd (HLA-B*57:01 [22]; source organism: Dengue virus 1 Brazil/97-11/1997): 0.0127 µM

Kd (HLA-C*05:01; source organism: Homo sapiens): 0.278 µM
Kd (HLA-C*03:03; source organism: Homo sapiens): ≥ 20 µM
Sequence: SLDDYNHLV

Sequence: GLMHNQNAL
IC50 (HLA-B*07:02; [30]): 12.4 µM
IC50 (HLA-A*24:02; [30]): 36.6 µM
IC50 (HLA-A*02:01 [1]; [30]): 3.85 µM
IC50 (HLA-B*15:01 [9]; [30]): 11.5 µM
